The values that follow come from publication PMC9381698, “Generation of synthetic antibody fragments with optimal complementarity determining region lengths for Notch-1 recognition” (Frontiers in Microbiology, 2022).

The EC50 is the concentration giving half of the maximal effect. A word on the koff: it is the rate constant with which the complex falls apart. As usually defined, the kon is the rate constant with which the complex forms.

The target in test [1] is T1, recombinant Fc-tag-fused human Notch-1 extracellular domain (Homo sapiens, UniProt P46531).
T1 construct: Notch-1, human, extracellular domain; No catalogue number and no residue limits are printed; also called N1; source: bought: R&D Systems
The experiment in a line: BLI; Octet RED384; Fabs immobilised on amine-reactive generation-2 or anti-Fab CH1 biosensors, target proteins in solution at three or more concentrations; 25 C, PBS; global 1:1 fit; apparent KD (Fc-Notch proteins may dimerize, avidity). The following applies: both partners purified.
T1 sequence (P46531 19-1735): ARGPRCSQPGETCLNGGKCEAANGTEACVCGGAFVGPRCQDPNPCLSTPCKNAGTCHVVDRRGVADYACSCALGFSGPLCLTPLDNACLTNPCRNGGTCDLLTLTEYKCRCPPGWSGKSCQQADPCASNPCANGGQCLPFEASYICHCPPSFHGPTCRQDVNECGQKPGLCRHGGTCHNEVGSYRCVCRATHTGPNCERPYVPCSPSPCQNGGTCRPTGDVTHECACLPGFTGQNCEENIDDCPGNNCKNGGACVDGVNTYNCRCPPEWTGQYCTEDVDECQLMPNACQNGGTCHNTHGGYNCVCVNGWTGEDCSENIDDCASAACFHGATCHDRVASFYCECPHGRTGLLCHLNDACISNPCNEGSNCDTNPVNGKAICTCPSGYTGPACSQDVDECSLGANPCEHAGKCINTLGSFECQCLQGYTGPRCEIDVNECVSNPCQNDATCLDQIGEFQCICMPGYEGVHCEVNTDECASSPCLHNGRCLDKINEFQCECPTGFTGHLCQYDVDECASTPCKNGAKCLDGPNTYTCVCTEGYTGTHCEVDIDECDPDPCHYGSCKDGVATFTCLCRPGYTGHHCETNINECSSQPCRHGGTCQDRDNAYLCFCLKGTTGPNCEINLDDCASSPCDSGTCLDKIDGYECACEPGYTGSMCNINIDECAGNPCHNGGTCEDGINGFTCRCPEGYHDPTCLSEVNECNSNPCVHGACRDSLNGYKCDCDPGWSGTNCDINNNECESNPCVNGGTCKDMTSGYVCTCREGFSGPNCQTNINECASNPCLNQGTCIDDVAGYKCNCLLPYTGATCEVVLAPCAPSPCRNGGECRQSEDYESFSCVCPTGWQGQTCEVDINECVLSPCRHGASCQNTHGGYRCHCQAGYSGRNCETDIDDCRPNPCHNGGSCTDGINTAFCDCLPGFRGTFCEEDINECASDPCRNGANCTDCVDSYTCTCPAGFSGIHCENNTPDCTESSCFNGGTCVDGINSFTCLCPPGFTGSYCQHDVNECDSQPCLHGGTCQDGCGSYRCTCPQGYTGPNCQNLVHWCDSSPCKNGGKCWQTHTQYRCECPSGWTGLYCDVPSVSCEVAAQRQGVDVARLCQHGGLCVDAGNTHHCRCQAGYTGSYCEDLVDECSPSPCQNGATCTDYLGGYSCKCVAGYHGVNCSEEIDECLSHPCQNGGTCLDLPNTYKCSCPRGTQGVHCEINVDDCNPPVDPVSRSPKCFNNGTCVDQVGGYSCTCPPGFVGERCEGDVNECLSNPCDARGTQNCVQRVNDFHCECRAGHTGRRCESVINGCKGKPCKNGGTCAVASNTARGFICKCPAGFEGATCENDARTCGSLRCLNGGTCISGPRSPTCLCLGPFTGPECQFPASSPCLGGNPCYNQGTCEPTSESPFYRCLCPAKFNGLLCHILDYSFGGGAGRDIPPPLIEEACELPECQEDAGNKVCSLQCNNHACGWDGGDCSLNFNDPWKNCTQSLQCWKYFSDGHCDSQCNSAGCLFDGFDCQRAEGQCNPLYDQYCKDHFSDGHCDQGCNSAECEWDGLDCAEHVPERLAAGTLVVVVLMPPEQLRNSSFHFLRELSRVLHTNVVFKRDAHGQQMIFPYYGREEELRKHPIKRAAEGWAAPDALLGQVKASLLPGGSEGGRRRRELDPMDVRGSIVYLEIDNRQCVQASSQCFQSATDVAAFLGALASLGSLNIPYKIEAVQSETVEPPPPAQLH

The target in test [2] is T1, recombinant Fc-tag-fused human Notch-1 …. The experiment in a line: ELISA; multi-point Fab-ELISA: target immobilised at 5 ug/ml on MaxiSorp plates; purified Fab 0.01 nM-1 uM in PT for 30 min; detected with HRP-conjugated anti-HIS antibody; EC50 from a one-site specific-binding fit. As to conditions: both partners purified. On the technique in general: An ELISA detects its analyte on a solid surface through an enzyme-linked reagent.

Test [3] has as its target T2, recombinant Fc-tag-fused human Notch-1 extracellular domain (Homo sapiens, UniProt P46531).
T2 construct: Notch-1, human, extracellular domain; the R&D Systems product may hold only part of the ectodomain (surmise); also called N1; Fc-Notch; source: bought: R&D Systems
The experiment in a line: BLI; Fabs immobilised on amine-reactive generation-2 or anti-Fab CH1 biosensors, target proteins in solution at at least three concentrations; 25°C, PBS; global fit to a 1:1 binding model; apparent constants (Fc fusions may dimerize). As to conditions: both partners purified.
T2 sequence (P46531 19-1735): as above

Test [4] deals with T3, Jagged-2 receptor ectodomain (Homo sapiens (assumed), UniProt Q9Y219).
T3 construct: Jagged-2 ectodomain; it may be an Fc fusion like the Notch proteins; also called J2
The experiment in a line: ELISA; single-point Fab-ELISA for specificity: proteins immobilised at 5 ug/ml on MaxiSorp plates; purified Fab at 1 uM; detected with HRP-conjugated anti-HIS antibody, Abs450. The following applies: both partners purified.

For test [5], the target named is T1, recombinant Fc-tag-fused human Notch-1 …. Nature of the test: ELISA; phage-ELISA: Notch-1 and control proteins immobilised at 5 ug/ml on MaxiSorp plates; phage-displayed Fab at 10^12 PFU/ml in PBT for 30 min; detected with HRP-conjugated anti-M13 antibody, Abs450. The following applies: one partner purified.

T3 sequence (Q9Y219 27-1080): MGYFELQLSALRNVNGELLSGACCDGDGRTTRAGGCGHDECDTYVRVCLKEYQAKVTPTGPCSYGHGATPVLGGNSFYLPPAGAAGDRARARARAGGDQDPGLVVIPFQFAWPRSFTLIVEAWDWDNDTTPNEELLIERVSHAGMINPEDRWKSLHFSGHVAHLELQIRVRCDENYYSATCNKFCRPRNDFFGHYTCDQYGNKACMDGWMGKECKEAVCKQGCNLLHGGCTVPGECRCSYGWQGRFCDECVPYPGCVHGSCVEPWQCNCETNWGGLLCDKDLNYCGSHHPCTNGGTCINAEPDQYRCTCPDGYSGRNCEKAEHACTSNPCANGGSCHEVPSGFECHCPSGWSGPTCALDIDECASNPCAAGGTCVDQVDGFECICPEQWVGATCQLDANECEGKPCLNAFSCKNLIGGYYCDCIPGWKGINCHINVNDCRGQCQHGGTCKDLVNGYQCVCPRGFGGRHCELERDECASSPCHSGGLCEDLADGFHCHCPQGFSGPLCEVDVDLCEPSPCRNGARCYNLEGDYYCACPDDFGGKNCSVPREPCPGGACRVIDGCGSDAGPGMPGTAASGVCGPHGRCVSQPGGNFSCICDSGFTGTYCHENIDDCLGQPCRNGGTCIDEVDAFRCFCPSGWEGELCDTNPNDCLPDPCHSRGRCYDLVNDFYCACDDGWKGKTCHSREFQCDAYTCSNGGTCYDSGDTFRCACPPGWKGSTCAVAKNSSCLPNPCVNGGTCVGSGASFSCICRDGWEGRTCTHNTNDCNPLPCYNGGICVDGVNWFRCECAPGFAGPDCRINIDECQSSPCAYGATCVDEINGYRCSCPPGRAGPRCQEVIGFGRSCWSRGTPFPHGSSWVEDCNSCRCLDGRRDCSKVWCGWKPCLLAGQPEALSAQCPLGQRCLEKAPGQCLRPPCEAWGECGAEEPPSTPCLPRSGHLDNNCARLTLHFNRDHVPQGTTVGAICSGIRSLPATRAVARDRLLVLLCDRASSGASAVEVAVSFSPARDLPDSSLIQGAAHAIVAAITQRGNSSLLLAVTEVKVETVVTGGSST

B1: Fab N1/F/2 (purified soluble Fab) (Fab, V domains shown)
VH: EVQLVESGGGLVQPGGSLRLSCAASGFNLSSYSIHWVRQAPGKGLEWVASISSSYGYTYYADSVKGRFTISADTSKNTAYLQMNSLRAEDTAVYYCARGYYAFDYWGQGTLVTVSS
VL: DIQMTQSPSSLSASVGDRVTITCRASQSVSSAVAWYQQKPGKAPKLLIYSASSLYSGVPSRFSGSRSGTDFTLTISSLQPEDFATYYCQQWWSFPLITFGQGTKVEIK
notes: light chain on the modified trastuzumab framework of Library-F (Persson et al., 2013); CDRs L1 and L2 fixed; Fab heavy chain on the modified trastuzumab framework of Library-F; short CDRH3; The Fab is detected by an anti-HIS antibody; source: E. coli BL21, purified (Protein-L resin)
As to B1, the Kd in test [1] was determined as 0.45 ± 0.05 nM. For the same molecule, in test [2], the EC50 is about 4 nM.

B2: Fab N1/F/2 (Fab, V domains shown)
VH: EVQLVESGGGLVQPGGSLRLSCAASGFNLSSYSIHWVRQAPGKGLEWVASISSSYGYTYYADSVKGRFTISADTSKNTAYLQMNSLRAEDTAVYYCARGYYAFDYWGQGTLVTVSS
VL: DIQMTQSPSSLSASVGDRVTITCRASQSVSSAVAWYQQKPGKAPKLLIYSASSLYSGVPSRFSGSRSGTDFTLTISSLQPEDFATYYCQQWWSFPLITFGQGTKVEIK
notes: Library-F Fab on a modified trastuzumab framework; Library-F Fab on a modified trastuzumab framework, CDRs L1 and L2 fixed; The Fab has a His tag (detected with anti-HIS antibody and biosensors); Library-F framework: Persson et al., 2013; source: E. coli BL21, purified (Protein-L resin)
On to B2, for which, in test [3], the koff stood at 0.000123 s⁻¹ and the kon stood at 322000 M⁻¹ s⁻¹.

B3: Fab N1/F/3 (Fab, V domains shown)
VH: EVQLVESGGGLVQPGGSLRLSCAASGFNLYSYYIHWVRQAPGKGLEWVASISSYYGYTSYADSVKGRFTISADTSKNTAYLQMNSLRAEDTAVYYCARYWHGALDYWGQGTLVTVSS
VL: DIQMTQSPSSLSASVGDRVTITCRASQSVSSAVAWYQQKPGKAPKLLIYSASSLYSGVPSRFSGSRSGTDFTLTISSLQPEDFATYYCQQGYFTYLFTFGQGTKVEIK
notes: as for B2
Regarding B3, in test [3], the koff was determined as 0.000218 s⁻¹ and the kon was 122000 M⁻¹ s⁻¹.

B4: Fab N1/F/3 (purified soluble Fab) (Fab, V domains shown)
VH: EVQLVESGGGLVQPGGSLRLSCAASGFNLYSYYIHWVRQAPGKGLEWVASISSYYGYTSYADSVKGRFTISADTSKNTAYLQMNSLRAEDTAVYYCARYWHGALDYWGQGTLVTVSS
VL: DIQMTQSPSSLSASVGDRVTITCRASQSVSSAVAWYQQKPGKAPKLLIYSASSLYSGVPSRFSGSRSGTDFTLTISSLQPEDFATYYCQQGYFTYLFTFGQGTKVEIK
notes: as for B1
Turning to B4, in test [4], the binding result is “binds”. Besides, the Kd in test [1] came to 1.88 nM. The EC50 in test [2] was about 4 nM.

B5: Fab N1/F/R1 (purified soluble Fab) (Fab, V domains shown)
VH: EVQLVESGGGLVQPGGSLRLSCAASGFNIYSSYIHWVRQAPGKGLEWVASIYPYYGSTYYADSVKGRFTISADTSKNTAYLQMNSLRAEDTAVYYCARYAHFSVYGAMDYWGQGTLVTVSS
VL: DIQMTQSPSSLSASVGDRVTITCRASQSVSSAVAWYQQKPGKAPKLLIYSASSLYSGVPSRFSGSRSGTDFTLTISSLQPEDFATYYCQQWYGGYALFTFGQGTKVEIK
notes: light chain on the modified trastuzumab framework of Library-F (Persson et al., 2013); CDRs L1 and L2 fixed; clone reconstructed from NGS information; Fab heavy chain on the modified trastuzumab framework of Library-F; medium CDRH3 length; The Fab is detected by an anti-HIS antibody; source: E. coli BL21, purified (Protein-L resin)
With B5, the binding result in test [4] is recorded as “binds”. For the same molecule, the Kd in test [1] worked out at 1.98 nM. Moreover, the EC50 in test [2] is about 4 nM.

B6: Fab N1/F/R1 (Fab, V domains shown)
VH: EVQLVESGGGLVQPGGSLRLSCAASGFNIYSSYIHWVRQAPGKGLEWVASIYPYYGSTYYADSVKGRFTISADTSKNTAYLQMNSLRAEDTAVYYCARYAHFSVYGAMDYWGQGTLVTVSS
VL: DIQMTQSPSSLSASVGDRVTITCRASQSVSSAVAWYQQKPGKAPKLLIYSASSLYSGVPSRFSGSRSGTDFTLTISSLQPEDFATYYCQQWYGGYALFTFGQGTKVEIK
notes: Library-F rare Fab reconstructed from NGS information, modified trastuzumab framework; Library-F rare Fab reconstructed from NGS information, modified trastuzumab framework, CDRs L1 and L2 fixed; The Fab has a His tag (detected with anti-HIS antibody and biosensors); Library-F framework: Persson et al., 2013; source: E. coli BL21, purified (Protein-L resin)
For the molecule B6, in test [3], the koff was determined as 0.000154 s⁻¹ and the kon is 76400 M⁻¹ s⁻¹.

B7: phage-displayed Fab N1/F/R2 (Fab, V domains shown)
VH: EVQLVESGGGLVQPGGSLRLSCAASGFNFSSSSIHWVRQAPGKGLEWVASIYSYYGYTYYADSVKGRFTISADTSKNTAYLQMNSLRAEDTAVYYCARSWWGGSWYAALDYWGQGTLVTVSS
VL: DIQMTQSPSSLSASVGDRVTITCRASQSVSSAVAWYQQKPGKAPKLLIYSASSLYSGVPSRFSGSRSGTDFTLTISSLQPEDFATYYCQQWWSLITFGQGTKVEIK
notes: as the light chain of m15; as the heavy chain of m15; Reconstructed by Kunkel mutagenesis in the MBP phagemid
Take B7: the “fold weaker phage-ELISA signal than the high-frequency Fabs” value in test [5] was about 4 fold.

B8: Fab N1/F/R3 (Fab, V domains shown)
VH: EVQLVESGGGLVQPGGSLRLSCAASGFNIYSSYMHWVRQAPGKGLEWVASIYPYYGYTSYADSVKGRFTISADTSKNTAYLQMNSLRAEDTAVYYCARYFSYGPFYYGSGLDYWGQGTLVTVSS
VL: DIQMTQSPSSLSASVGDRVTITCRASQSVSSAVAWYQQKPGKAPKLLIYSASSLYSGVPSRFSGSRSGTDFTLTISSLQPEDFATYYCQQGFSLITFGQGTKVEIK
notes: as for B6
Take B8: in test [3], the koff was 0.000484 s⁻¹ and the kon came out at 85300 M⁻¹ s⁻¹.
